Laboratory results reported in patent US20240132603A1 (HARBOUR BIOMED US, published 2024).

Tests used:
[1] = target: T1, CD147; test: flow cytometry, HEK293-CD147 cells
T1 construct: also called HEK293-CD147

[2] = target: T2, human CCR8 (human, UniProt P51685 1-355); test: KinExA, cell line overexpressing human CCR8; human CCR8 cell line
T2 construct: whole, on cells; construct used for the overexpressing cell lines is not described; also called hCCR8
Method: To 200 mg of PMMA hard beads was added 30 μg of Goat Anti-Human IgG Fc antibody, and the mixture was supplemented with a coating solution to 1.0 mL, with a buffer composition of 1×PBS, pH7.4, to ensure that the beads were completely suspended in the solution. After being spun at room temperature for 2 h, the beads were either allowed to settle naturally or centrifuged briefly at low speed, and the supernatant was removed. 1 mL of blocking buffer (1×PBS, pH7.4, containing 10 mg/mL BSA) was added to ensure that the beads were resuspended in the blocking solution, and the beads were spun at room temperature for 1 h. An appropriate concentration of PR005565, PR006155 or PR006166 was used as the 100% signal value, and PBS blank was used as the background value. The net signal values were detected using 0.5 μg/mL Alexa Fluor® 647 Goat Anti-Human IgG. The cell line overexpressing human or monkey CCR8 was collected by centrifugation at 1500 g for 5 min, washed 2 times with 2 PBS and centrifuged at 350 g. The cells were collected in a 1.5 mL centrifuge tube. 10 mL of 0.2 nM PR005565, PR006155 or PR006166 solution was prepared. The total cells were supplemented with 0.2 nM PR005565, PR006155 or PR006166 solution to 0.82 mL, and diluted in a 2-fold gradient with 0.2 nM PR005565, PR006155 or PR006166 as a buffer. […]

[3] = target: T3, TSPAN12-FLAG (UniProt O95859 1-305); test: flow cytometry, HEK293-TSPAN12 cells
T3 construct: whole, on cells; order of protein and tag unknown; also called HEK293-TSPAN12; not shown: FLAG tag
T3 sequence (looked up): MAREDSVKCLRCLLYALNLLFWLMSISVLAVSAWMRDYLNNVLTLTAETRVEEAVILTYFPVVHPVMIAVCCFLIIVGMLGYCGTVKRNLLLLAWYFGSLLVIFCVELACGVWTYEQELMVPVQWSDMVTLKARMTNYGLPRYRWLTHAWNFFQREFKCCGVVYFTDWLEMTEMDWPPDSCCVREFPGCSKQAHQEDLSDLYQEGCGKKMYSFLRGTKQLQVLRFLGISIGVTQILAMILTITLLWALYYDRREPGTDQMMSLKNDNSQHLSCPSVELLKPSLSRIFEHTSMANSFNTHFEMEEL
Description: (§1) After that, HEK293 cells were transfected with commercial MMP16 (protein information can be found under Uniprot P51512), CD40LG (protein information can be found under Uniprot P29965), CD147 (protein information can be found under Uniprot P35612), TSPAN4 (protein information can be found under Uniprot 014817), and TSPAN12 (protein information can be found under Uniprot 095859) plasmids for further verification of the binding of PR005565, PR006275 and PR006276 to these proteins. […] However, the binding values of PR005565, PR006275 and PR006276 to MMP16, CD40LG, CD147, TSPAN4 and TSPAN12 after transfection of HEK293 cells were all consistent with the signal values of HEK293 cells themselves. Thus, PR005565, PR006275 and PR006276 had no non-specific binding to MMP16, CD40LG, CD147, TSPAN4 and TSPAN12 proteins (see Table 50).

[4] = target: T4, MMP16 (UniProt P51512 120-607); test: flow cytometry, HEK293-MMP16 cells
T4 construct: whole, on cells; also called HEK293-MMP16
T4 sequence (P51512 120-607): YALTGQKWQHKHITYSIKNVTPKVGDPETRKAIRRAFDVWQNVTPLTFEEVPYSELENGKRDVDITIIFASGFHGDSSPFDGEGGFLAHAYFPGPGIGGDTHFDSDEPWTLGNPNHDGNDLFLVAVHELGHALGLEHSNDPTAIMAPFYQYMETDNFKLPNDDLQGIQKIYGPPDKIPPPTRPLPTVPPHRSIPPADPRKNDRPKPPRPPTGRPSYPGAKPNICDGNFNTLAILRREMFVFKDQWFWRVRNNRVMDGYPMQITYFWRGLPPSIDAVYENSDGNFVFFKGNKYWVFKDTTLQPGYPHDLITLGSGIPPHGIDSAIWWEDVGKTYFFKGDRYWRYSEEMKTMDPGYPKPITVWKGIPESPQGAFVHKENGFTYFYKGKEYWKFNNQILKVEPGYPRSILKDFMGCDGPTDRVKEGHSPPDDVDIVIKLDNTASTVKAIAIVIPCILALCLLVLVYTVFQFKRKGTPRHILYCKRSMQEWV

[5] = target: T2, human CCR8; test: FACS, CHO-K1-hCCR8 cells
Procedure, shortened: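 Flow cytometry measures antibody binding to the overexpressing cells. These are first incubated at 4 °C for 1 h with test antibody titrated 5-fold down from 200 nM, then for 40 min with secondary antibody diluted 1:1000.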

[6] = target: T5, CD40LG (UniProt P29965 1-261); test: flow cytometry, transfected HEK293 cells
T5 construct: whole, on cells; also called HEK293-CD40LG
T5 sequence (looked up): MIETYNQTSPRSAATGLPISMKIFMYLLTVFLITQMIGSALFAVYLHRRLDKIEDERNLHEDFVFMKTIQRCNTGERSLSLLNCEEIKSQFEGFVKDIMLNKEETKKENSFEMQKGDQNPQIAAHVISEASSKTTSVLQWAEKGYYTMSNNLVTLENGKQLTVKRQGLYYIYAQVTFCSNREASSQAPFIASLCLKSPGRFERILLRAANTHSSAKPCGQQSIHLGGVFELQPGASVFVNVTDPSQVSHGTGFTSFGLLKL
Description: as §1

[7] = target: T4, MMP16; test: flow cytometry, transfected HEK293 cells
Description: as §1

[8] = target: T3, TSPAN12-FLAG; test: flow cytometry, transfected HEK293 cells
Description: as §1

[9] = target: T5, CD40LG; test: flow cytometry, HEK293-CD40LG cells

T2 sequence (P51685 whole entry): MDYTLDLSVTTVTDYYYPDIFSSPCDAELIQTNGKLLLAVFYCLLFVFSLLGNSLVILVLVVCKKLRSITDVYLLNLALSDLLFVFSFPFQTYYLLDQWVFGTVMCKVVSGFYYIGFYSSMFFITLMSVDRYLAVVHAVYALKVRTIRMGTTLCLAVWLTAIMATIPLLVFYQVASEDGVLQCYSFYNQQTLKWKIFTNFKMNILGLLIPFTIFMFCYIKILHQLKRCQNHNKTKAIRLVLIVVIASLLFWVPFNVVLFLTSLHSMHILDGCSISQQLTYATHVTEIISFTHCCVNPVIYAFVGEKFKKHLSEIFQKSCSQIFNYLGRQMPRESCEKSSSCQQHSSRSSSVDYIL

B1: PR005565 (antibody, human IgG1, kappa)
heavy: not shown
light: DIVMTQSPLSLPVTLGQPASISCRSSKSLLHSNAKIYLYWFQQRPGQSPRLLIYRMSNLASGVPDRFSGSGSGTDFTLKISRVEAEDVGVYYCMQHLEYPLTFGQGTKLEIKRTVAAPSVFIFPPSDEQLKSGTASVVCLLNNFYPREAKVQWKVDNALQSGNSQESVTEQDSKDSTYSLSSTLTLSKADYEKHKVYACEVTHQGLSSPVTKSFNRGEC
notes: IgG1 constant region; same VH/VL as PR004666
**Q.** How did the MFI [1] turn out when B1 was run?
**A.** Its MFI is 212.

**Q.** What about the Kd [2] of the same binder?
**A.** The Kd was 0.13 nM.

**Q.** And the MFI [3]?
**A.** The MFI was 219.

**Q.** And the MFI [4]?
**A.** Its MFI is 146.

**Q.** What about the EC50 [5] of the same binder?
**A.** The EC50 was 0.42 nM.

**Q.** Does B1 bind [6]?
**A.** Result: no binding

**Q.** Does B1 bind [7]?
**A.** Result: no binding

**Q.** Does B1 bind [8]?
**A.** Result: no binding

**Q.** What about the MFI [9] of the same binder?
**A.** The MFI was 241.
